# Data as given in patent US20090123479A1 (published 2009).
# T1: recombinant human IL-23 (human, UniProt Q9NPF7 20-189; P29460 23-328)
# T1 construct: also called hIL-23
# T1 sequence 1: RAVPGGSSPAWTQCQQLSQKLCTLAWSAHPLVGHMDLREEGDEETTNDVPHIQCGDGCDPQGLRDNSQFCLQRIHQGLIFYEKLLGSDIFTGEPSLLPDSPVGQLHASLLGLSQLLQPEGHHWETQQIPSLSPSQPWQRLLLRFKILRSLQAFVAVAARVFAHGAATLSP
# T1 sequence 2: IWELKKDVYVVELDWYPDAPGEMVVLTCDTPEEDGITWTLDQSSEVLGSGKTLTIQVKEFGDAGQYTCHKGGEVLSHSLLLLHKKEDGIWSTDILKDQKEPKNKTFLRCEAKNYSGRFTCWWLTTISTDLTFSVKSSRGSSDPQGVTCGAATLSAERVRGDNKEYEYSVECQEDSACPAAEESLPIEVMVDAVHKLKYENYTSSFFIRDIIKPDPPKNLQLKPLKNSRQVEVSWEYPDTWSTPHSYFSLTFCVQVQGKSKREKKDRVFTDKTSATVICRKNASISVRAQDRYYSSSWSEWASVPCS
# T2: recombinant cynomologus IL-23 (cynomolgus, limits assumed)
# T2 construct: also called cynomolgus IL-23; cyno IL23
# T2 chain 1: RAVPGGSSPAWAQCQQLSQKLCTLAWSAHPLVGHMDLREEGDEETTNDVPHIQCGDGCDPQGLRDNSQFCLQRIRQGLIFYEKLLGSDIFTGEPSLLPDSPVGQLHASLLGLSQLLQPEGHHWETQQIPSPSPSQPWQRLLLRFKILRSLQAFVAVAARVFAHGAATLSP
# T2 chain 2: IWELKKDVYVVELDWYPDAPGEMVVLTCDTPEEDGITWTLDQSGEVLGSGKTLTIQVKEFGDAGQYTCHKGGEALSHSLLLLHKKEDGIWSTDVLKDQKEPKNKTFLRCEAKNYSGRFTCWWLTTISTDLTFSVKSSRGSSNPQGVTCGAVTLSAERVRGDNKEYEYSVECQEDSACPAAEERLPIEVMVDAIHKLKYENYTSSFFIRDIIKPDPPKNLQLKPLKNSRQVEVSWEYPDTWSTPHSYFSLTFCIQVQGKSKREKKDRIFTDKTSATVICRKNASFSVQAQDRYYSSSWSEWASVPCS
# How the values were obtained:
# recombinant human IL-23 [1] = biological target: T1, recombinant human IL-23; test: SPR (Biacore T100), purified antibody captured on anti-human IgG, IL-23 analyte (different source of IL-23), 1:1 model
# Protocol: Biacore analysis was carried out using a capture surface on a CM5 chip. Anti-human IgG (BR-1008-39) was used as the capturing agent. Anti-human IgG was coupled to a CM5 biosensor chip by primary amine coupling. Humanized antibody was captured on this immobilised surface and defined concentrations of IL-23 were passed over this captured surface. An injection of buffer over the captured antibody surface was used for double-referencing. […] T100 Biacore machine was used to generate the data; all runs were carried out at 25° C. using HBS EP. Data was analysed using the software inherent to the machine and fitted to the 1:1 model of binding. Tables 7 and 8 detail the IL-23 binding analysis carried out on the 8C92H6.HC1LC1 chimera and selected humanized variants in two separate experiments. Data presented in Tables 7 and 8 are from purified antibody samples. The data shown for the humanized variants is representative of a number of runs. The chimeric mAb (8C9H6.HC1LC1) was only run once in each experiment, so data shown for this mAb is from that one run.
# [2] = biological target: T2, recombinant cynomologus IL-23; test: IL-23/IL-23R inhibition ELISA (optimised protocol, OD450): plate coated with human IL23R Fc chimera, antibody pre-incubated with constant cynomolgus IL-23, bound IL-23 detected with biotinylated anti-human IL-12; purified antibody
# Protocol: Optimised protocol: Plates were coated with human IL23R Fc chimera at […] (phosphate buffered saline). 50 μl/well of this mixture was incubated overnight at 4° C. The plates were then washed three times with Phosphate Buffered Saline with 0.05% Tween 20 (PBST). Plates were blocked with 4% skim milk powder (Fluka BioChemika #70166) PBST 100 μl/well for a minimum of 1 hour at room temperature. The plates were then washed three times with Phosphate Buffered Saline+0.05% Tween 20 (PBST). Various concentrations of antibody were incubated in a separate plate with a constant concentration of IL-23 for 1 hour at room temperature. 50 ul of each mixture were transferred to the assay plate and incubated at RT for 1 hr. They were then washed three times with Phosphate Buffered Saline+0.05% Tween 20 (PBST). Bound IL23 was detected by anti human 1L12 Biotin labelled Ab (R&D systems BAF219) diluted to 100 ng/ml in 4% skim milk powder (Fluka BioChemika #70166) PBST. 50 μl/well of the biotinylated antibody was added and incubated at RT for 1 hour. The plates were then washed three times with Phosphate Buffered Saline+0.05% Tween 20 (PBST). SA HRP (GE healthcare RPN4401) was diluted 1/4000 in 4% skim m ilk powder (Fluka BioChemika #70166) PBS, 50 μl/well was added to the plates. The plates were then washed three times with Phosphate Buffered Saline+0.05% Tween 20 (PBST). 50 ul/well of TMB was added to the plates and incubated at RT for 15 min. 25 μl/well of 3 MH₂SO₄ was added to the wells already containing TMB. The plate was read at OD450 nm using the SOftmaxPRO versamax plate reader.
# recombinant human IL-23 [3] = biological target: T1, recombinant human IL-23; test: sandwich ELISA (optimised protocol, OD450): plate coated with anti-human IL-12, antibody pre-incubated with constant human IL-23, bound antibody detected with anti-human IgG gamma chain HRP; purified antibody
# Protocol: Optimised assay conditions: Plates were coated with anti human IL12 at 2 μg/diluent (phosphate buffered saline). 50 μl/well of this mixture was incubated overnight at 4° C. The plates were then washed three times with Phosphate Buffered Saline with 0.05% Tween 20 (PBST). Plates were blocked with 4% skim milk powder (Fluka BioChemika #70166) PBS 200 μl/well for a minimum of 1 hour at room temperature. The plates were then washed three times with Phosphate Buffered Saline+0.05% Tween 20 (PBST). Various concentrations of antibody were incubated in a separate plate with a constant concentration of IL-23 for 1 hour at room temperature. 50 ul of each mixture were transferred to the assay plate and incubated at RT for 1 hr. They were then washed three times with Phosphate Buffered Saline+0.05% Tween 20 (PBST). […] 50 μl/well of the detection antibody was added and incubated at RT for 1 hour. The plates were then washed three times with Phosphate Buffered Saline+0.05% Tween 20 (PBST). 50 μl/well of TMB was added to the plates and incubated at RT for 10 min. 50 μl/well of 1 MH₂SO₄ was added. The plate was read at OD450 nm using the SOftmaxPRO versamax plate reader.
Kd (recombinant human IL-23 [1]),koff (recombinant human IL-23 [1]),kon (recombinant human IL-23 [1]),IC50 (read off the curve) [2],EC50 (read off the curve) (recombinant human IL-23 [3]),Binder
0.364 nM,0.000337 s⁻¹,925000 M⁻¹ s⁻¹,~2 nM,~0.1 nM,"chimeric 8C92H6 HC1LC1 (antibody, V domains shown, Murine variable regions with human constant regions; also called 8C92H6.HC1LC1 Chimera; 8C9 chimera) VH: QVQLQQSGAELARPGTSVKLSCKASGYTFTSYGITWVKQRTGQGLEWIGENYPRSGNTYYNEKFKGKATLTADKSSSTAYMELRSLTSEDSAVYFCARCEFISTVVAPYYYALDYWGQGTSLVTVS VL: DIVLTQSPASLAVSLGQKATISCKASKKVTIFGSISALHWYQQKPGQPPKLIYNGAKLESGVSARFSDSGSQNRSPFGNQLSFTLTIDPVEADDAATYYCLQNKEVPYTFGGGTKLEIKR"
0.19 nM,0.00024 s⁻¹,1.27e+06 M⁻¹ s⁻¹,~0.7 nM,~0.03 nM,"A3M0 (antibody, human IgG1, kappa, V domains shown, Full length chains; also called humanized mAb A3M0) VH: QVQLVQSGAEVKKPGSSVKVSCKASGYTFTSYGITWVRQAPGQGLEWMGENYPRSGNTYYNEKFKGRVTITADKSTSTAYMELSSLRSEDTAVYYCARSEFISTVVAPYYYALDYWGQGTLVTVSS VL: DIVMTQSPDSLAVSLGERATINCKASKKVTIFGSISALHWYQQKPGQPPKLIYNGAKLESGVPDRFSGSGSGTDFTLTISSLQAEDVAVYYCLQNKEVPYTFGGGTKVEIKR"
